According to PMC2821871 (Biochemistry, 2010):
No end group written: not given here. *: point of attachment. Biotin = O=C1N[C@H]2[C@H](CS[C@H]2CCCCC(=O)*)N1

Key:
CR17 of LRP = biological target: T1, CR17 of LRP (human, UniProt Q07954 2770-2817)
T1 chain (looked up): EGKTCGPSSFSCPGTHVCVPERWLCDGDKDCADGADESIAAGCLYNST

[1] = biological target: CR16-18 of LRP (P. pastoris) (human, UniProt Q07954 2731-2857); experiment: SPR
CR16-18 of LRP (P. pastoris), sequence (Q07954 2731-2857): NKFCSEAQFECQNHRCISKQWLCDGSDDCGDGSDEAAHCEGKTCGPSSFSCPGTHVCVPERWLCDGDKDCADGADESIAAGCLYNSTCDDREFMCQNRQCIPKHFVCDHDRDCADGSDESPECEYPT

Binder | KD (Global) (CR17 of LRP) [mM] | KD (Largest) (CR17 of LRP) [mM] | KD (Sum) (CR17 of LRP) [mM] | Kd (CR17 of LRP) [mM] | Kd [1] [mM]
TEELRVRLASHLRALRARLL (peptide, UniProt P02649 148-167, looked up) [Ub-ApoE(130-149)(K143/146A)] | 3.84 ± 0.801 | 2.76 ± 0.361 | 3.78 ± 0.375 | 3.46 | –
TEELRVRLASH (peptide, UniProt P02649 148-158, looked up) [Ub-ApoE(130-140)] | – | – | – | > 5 | –
Biotin-LRKLRKRLLRDADDLLRKLRKRLLRDADDL (peptide, UniProt P02649 159-173, looked up) [biotinylated ApoE(141-155)^2 peptide] | – | – | – | – | ~0.0002
